Patent publication US20140274782A1, “AFFINITY REAGENTS AND METHODS FOR DETECTION, PURIFICATION, AND PROTEOMIC ANALYSIS OF METHYLATED PROTEINS” (The Board of Trustees of the Leland Stanford Junior …, priority 2013, published 2014)

Assays:
Assay in all cases: ProtoArray, G9a array SNR minus GST array SNR
[1] = biological target: YPEL5, G9a-methylated (human) (UniProt P62699)
[2] = biological target: C2orf43, G9a-methylated (human) (UniProt Q9H6V9)
[3] = biological target: ZRANB1, G9a-methylated (human) (UniProt Q9UGI0)
[4] = biological target: GPX5, G9a-methylated (human) (UniProt O75715)
Chain of GPX5, G9a-methylated (human) (O75715 other isoform, or with tags, fused parts or gaps limits assumed): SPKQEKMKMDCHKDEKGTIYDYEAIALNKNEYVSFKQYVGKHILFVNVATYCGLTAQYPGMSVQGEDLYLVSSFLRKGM

[5] = biological target: HIC2, G9a-methylated (human) (UniProt Q96JB3)
[6] = biological target: SAR1B, G9a-methylated (human) (UniProt Q9Y6B6)
[7] = biological target: STK17B, G9a-methylated (human) (UniProt O94768)
Chain of STK17B, G9a-methylated (human) (O94768 whole entry): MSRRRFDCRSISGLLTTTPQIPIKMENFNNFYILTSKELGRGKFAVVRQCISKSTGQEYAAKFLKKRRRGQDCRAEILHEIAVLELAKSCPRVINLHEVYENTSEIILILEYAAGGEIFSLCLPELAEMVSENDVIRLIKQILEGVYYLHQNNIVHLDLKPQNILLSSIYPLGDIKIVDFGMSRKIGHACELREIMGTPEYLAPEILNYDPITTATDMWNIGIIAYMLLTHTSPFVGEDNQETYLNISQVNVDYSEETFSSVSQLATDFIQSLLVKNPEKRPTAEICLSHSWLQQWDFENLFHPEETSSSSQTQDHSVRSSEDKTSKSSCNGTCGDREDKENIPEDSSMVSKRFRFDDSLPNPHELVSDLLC

[8] = biological target: TMED5, G9a-methylated (human) (UniProt Q9Y3A6)
Chain of TMED5, G9a-methylated (human) (Q9Y3A6 28-229 limits assumed): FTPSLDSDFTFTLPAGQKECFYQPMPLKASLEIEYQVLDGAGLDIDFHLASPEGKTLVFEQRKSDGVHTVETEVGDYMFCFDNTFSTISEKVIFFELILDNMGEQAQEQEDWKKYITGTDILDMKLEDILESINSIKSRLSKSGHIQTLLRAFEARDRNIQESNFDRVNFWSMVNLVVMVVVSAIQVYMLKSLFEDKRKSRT

[9] = biological target: C10orf83, G9a-methylated (human) (UniProt Q8NDC4)
[10] = biological target: CUTC, G9a-methylated (human) (UniProt Q9NTM9)
Chain of CUTC, G9a-methylated (human) (Q9NTM9 whole entry): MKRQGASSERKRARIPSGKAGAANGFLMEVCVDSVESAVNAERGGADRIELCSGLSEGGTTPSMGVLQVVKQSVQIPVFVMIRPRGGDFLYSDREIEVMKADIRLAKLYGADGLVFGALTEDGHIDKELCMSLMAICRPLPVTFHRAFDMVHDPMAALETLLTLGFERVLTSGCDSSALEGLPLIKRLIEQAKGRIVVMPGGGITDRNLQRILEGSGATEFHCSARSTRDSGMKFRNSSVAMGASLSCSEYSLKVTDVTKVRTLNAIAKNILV

[11] = biological target: GAL, G9a-methylated (human) (UniProt P22466)
Chain of GAL, G9a-methylated (human) (P22466 20-123 limits assumed): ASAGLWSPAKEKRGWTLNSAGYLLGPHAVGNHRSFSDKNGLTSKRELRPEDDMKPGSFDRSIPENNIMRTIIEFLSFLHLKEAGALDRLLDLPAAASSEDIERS

[12] = biological target: VPS29, G9a-methylated (human) (UniProt Q9UBQ0)
[13] = biological target: SCGB1A1, G9a-methylated (human) (UniProt P11684)
[14] = biological target: GHRL, G9a-methylated (human) (UniProt Q9UBU3)
Chain of GHRL, G9a-methylated (human) (Q9UBU3 24-117 limits assumed): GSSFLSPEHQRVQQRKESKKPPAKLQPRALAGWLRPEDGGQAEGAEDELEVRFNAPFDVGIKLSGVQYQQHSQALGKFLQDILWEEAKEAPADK

[15] = biological target: NME1, G9a-methylated (human) (UniProt P15531)
Chain of NME1, G9a-methylated (human) (P15531 whole entry): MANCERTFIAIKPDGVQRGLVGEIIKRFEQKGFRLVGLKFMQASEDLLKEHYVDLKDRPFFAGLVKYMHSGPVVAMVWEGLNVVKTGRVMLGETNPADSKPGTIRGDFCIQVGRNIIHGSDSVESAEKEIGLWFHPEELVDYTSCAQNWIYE

[16] = biological target: CNTD1, G9a-methylated (human) (UniProt Q8N815)
Chain of CNTD1, G9a-methylated (human) (Q8N815 whole entry): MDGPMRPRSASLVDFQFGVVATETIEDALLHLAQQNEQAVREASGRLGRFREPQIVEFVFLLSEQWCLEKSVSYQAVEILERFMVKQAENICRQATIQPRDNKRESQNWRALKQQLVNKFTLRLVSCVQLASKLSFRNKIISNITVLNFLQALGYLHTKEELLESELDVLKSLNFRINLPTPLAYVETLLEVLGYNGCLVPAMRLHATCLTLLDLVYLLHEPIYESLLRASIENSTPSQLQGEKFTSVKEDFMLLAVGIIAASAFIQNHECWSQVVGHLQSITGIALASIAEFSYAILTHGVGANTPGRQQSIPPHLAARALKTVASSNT

[17] = biological target: MRPL21, G9a-methylated (human) (UniProt Q7Z2W9)
[18] = biological target: NME7, G9a-methylated (human) (UniProt Q9Y5B8)
Chain of NME7, G9a-methylated (human) (Q9Y5B8 37-376 limits assumed): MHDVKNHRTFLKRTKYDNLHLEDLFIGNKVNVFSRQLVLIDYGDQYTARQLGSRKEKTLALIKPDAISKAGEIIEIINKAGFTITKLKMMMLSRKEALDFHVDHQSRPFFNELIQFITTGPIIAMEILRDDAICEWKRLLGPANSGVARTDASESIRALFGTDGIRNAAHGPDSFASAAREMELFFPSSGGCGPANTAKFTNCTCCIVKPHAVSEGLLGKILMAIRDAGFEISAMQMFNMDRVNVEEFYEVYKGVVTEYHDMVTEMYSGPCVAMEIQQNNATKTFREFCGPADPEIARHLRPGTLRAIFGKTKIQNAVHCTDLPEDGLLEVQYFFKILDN

[19] = biological target: CTSZ, G9a-methylated (human) (UniProt Q9UBR2)
[20] = biological target: TEAD4, G9a-methylated (human) (UniProt Q15561)
[21] = biological target: CDKL5, G9a-methylated (human) (UniProt O76039)
Chain of CDKL5, G9a-methylated (human) (O76039 other isoform, or with tags, fused parts or gaps limits assumed): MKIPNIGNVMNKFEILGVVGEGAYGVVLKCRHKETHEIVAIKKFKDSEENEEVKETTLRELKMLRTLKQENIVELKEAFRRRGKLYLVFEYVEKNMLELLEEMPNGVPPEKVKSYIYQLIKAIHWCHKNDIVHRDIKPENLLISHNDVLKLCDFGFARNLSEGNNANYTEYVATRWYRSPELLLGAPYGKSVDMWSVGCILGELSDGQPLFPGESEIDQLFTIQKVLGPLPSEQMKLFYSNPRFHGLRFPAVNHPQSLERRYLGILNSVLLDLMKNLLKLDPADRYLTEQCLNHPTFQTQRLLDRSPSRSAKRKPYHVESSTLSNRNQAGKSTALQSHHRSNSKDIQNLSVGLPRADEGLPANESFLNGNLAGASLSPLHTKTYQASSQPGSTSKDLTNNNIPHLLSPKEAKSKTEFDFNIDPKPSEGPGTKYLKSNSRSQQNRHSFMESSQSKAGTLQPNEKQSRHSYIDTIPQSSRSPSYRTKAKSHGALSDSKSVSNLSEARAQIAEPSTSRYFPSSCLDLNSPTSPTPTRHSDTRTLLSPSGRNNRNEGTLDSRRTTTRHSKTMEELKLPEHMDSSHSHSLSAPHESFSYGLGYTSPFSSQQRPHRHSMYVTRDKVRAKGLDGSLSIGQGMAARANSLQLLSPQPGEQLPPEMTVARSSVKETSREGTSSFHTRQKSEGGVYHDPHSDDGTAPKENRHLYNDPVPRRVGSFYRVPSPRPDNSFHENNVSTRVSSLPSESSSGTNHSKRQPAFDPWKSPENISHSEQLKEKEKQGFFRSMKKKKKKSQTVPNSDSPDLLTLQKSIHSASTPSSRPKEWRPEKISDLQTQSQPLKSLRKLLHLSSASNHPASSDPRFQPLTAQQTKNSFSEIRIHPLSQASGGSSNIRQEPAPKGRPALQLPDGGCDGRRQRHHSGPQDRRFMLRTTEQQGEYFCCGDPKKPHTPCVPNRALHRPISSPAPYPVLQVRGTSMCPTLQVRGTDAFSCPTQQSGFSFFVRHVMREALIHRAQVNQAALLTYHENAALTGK

[22] = biological target: TMEM97, G9a-methylated (human) (UniProt Q5BJF2)
[23] = biological target: GPR108, G9a-methylated (human) (UniProt Q9NPR9)
Chain of GPR108, G9a-methylated (human) (Q9NPR9 33-543 limits assumed): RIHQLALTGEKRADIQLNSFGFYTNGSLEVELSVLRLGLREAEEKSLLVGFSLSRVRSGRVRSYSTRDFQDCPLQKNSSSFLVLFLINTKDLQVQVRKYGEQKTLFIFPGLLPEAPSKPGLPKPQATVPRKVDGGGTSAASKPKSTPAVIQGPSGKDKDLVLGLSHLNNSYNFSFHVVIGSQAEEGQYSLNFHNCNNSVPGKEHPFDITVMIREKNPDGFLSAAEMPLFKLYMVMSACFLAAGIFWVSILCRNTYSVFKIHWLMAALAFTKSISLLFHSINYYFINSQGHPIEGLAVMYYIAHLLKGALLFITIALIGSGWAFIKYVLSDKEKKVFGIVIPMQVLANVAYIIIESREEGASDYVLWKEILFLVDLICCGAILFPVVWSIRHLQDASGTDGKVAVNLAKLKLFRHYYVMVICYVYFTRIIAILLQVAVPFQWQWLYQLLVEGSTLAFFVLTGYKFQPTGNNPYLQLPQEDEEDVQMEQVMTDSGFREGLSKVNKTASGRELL

[24] = biological target: ACSL4, G9a-methylated (human) (UniProt O60488)
[25] = biological target: DNTT, G9a-methylated (human) (UniProt P04053)
[26] = biological target: SCGB2A2, G9a-methylated (human) (UniProt Q13296)
Chain of SCGB2A2, G9a-methylated (human) (Q13296 19-93 limits assumed): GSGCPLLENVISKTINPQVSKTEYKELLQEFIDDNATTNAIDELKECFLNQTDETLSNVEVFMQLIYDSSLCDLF

[27] = biological target: CD79A, G9a-methylated (human) (UniProt P11912)
Chain of CD79A, G9a-methylated (human) (P11912 33-226 limits assumed): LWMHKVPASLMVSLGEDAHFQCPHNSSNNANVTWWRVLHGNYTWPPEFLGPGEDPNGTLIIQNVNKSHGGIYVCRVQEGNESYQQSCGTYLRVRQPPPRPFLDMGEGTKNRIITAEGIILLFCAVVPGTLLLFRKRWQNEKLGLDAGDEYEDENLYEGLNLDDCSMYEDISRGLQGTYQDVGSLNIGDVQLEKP

[28] = biological target: CDK10, G9a-methylated (human) (UniProt Q15131)
[29] = biological target: FTH1 (hit 109), G9a-methylated (human) (UniProt P02794)
[30] = biological target: SERPINB2, G9a-methylated (human) (UniProt P05120)
[31] = biological target: SMYD5, G9a-methylated (human) (UniProt Q6GMV2)
[32] = biological target: PPARG, G9a-methylated (human) (UniProt P37231)
Chain of PPARG, G9a-methylated (human) (P37231 29-505 limits assumed): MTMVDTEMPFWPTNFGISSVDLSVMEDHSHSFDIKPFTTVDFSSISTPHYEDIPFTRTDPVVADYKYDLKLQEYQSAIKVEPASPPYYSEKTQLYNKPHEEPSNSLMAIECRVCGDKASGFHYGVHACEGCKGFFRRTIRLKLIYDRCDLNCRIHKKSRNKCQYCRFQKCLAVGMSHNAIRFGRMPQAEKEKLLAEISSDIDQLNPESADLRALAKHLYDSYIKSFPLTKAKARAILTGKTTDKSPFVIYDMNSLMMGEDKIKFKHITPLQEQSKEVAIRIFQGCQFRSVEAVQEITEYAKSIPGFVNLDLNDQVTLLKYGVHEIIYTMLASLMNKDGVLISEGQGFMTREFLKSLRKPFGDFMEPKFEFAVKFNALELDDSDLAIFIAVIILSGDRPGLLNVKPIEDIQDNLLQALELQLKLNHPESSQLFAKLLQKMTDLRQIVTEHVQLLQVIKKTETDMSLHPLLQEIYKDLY

[33] = biological target: TMEM32, G9a-methylated (human) (UniProt Q8N4V1)
[34] = biological target: C11orf73, G9a-methylated (human) (UniProt Q53FT3)
Chain of C11orf73, G9a-methylated (human) (Q53FT3 whole entry): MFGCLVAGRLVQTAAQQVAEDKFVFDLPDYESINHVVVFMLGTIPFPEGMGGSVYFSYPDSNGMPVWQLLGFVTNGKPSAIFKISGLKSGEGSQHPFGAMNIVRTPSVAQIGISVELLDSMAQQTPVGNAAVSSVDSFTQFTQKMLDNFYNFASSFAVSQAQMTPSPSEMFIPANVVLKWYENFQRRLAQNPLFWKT

Chain of C2orf43, G9a-methylated (human) (Q9H6V9 whole entry): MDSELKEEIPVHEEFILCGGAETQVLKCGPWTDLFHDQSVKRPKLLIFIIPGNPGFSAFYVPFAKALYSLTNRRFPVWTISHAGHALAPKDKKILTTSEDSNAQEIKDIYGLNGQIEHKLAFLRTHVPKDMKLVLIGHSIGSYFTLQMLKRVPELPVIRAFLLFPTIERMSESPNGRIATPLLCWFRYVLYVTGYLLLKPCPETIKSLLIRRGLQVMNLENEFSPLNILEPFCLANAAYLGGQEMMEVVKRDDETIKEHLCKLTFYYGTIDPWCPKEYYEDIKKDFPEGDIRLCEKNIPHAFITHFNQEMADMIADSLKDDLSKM

A G9a-GST [1] of 14.2, a G9a-GST [2] of 12.1 and a G9a-GST [3] of 13.6 were found for 3× Flag-3×MBT (designed binder) in this work. It also gave a G9a-GST [4] of 25.6, a G9a-GST [5] of 16.1 and a G9a-GST [6] of 19.3. For the same substance, the G9a-GST [7] was 13.8, the G9a-GST [8] was 15.5 and the G9a-GST [9] was 14.6. For the same substance, the G9a-GST [10] was 12.9, the G9a-GST [11] was 13.2 and the G9a-GST [12] was 15.5. The G9a-GST [13] was 18.4, the G9a-GST [14] was 24.1 and the G9a-GST [15] was 14.1. It also gave a G9a-GST [16] of 12.2, a G9a-GST [17] of 21.9 and a G9a-GST [18] of 13.6. For the same substance, the G9a-GST [19] was 12.3, the G9a-GST [20] was 16.1 and the G9a-GST [21] was 18.3. The G9a-GST [22] was 22.8, the G9a-GST [23] was 20 and the G9a-GST [24] was 12.1. It also gave a G9a-GST [25] of 49.5, a G9a-GST [26] of 13.8 and a G9a-GST [27] of 14.5. The G9a-GST [28] was 13.2, the G9a-GST [29] was 37.9 and the G9a-GST [30] was 17.3. For the same substance, the G9a-GST [31] was 19.5, the G9a-GST [32] was 13.3 and the G9a-GST [33] was 12.1. The G9a-GST [34] was 14.9.
